{"source": "paper PMC3144414", "key": {"[1]": {"target": "GDP microtubules (polymerised from porcine brain tubulin with GTP) (porcine) (UniProt P02550)", "experiment": "in vitro MT-binding assay by epifluorescence microscopy"}, "[2]": {"target": "GMPCPP microtubules (polymerised from porcine brain tubulin with GMPCPP) (porcine) (UniProt P02550)", "experiment": "in vitro MT-binding assay by epifluorescence microscopy"}}}
{"substance": "KIF5C monomeric motor domain (K351) (domain or fragment)", "values": [{"measurement": "Kd", "setting": "[1]", "value": 930, "unit": "nM"}, {"measurement": "Kd", "setting": "[2]", "value": 250, "unit": "nM"}]}
